The values that follow come from PMC3577348 (Science (New York, N.Y.), 2012).

The chains are these.
B1: mouse Fz8-CRD (residues 32-151), biotinylated (domain or fragment, UniProt Q61091 32-151, looked up)
chain: ELACQEITVPLCKGIGYNYTYMPNQFNHDTQDEAGLEVHQFWPLVEIQCSPDLKFFLCSMYTPICLEDYKKPLPPCRSVCERAKAGCAPLMRQYGFAWPDRMRCDRLPEQGNPDTLCMDY
modifications: biotin on the BAP-tag (enzymatic, GST-BirA ligase)
B2: human Fz5-CRD (residues 30-150), biotinylated (domain or fragment, UniProt Q13467 30-150, looked up)
chain: APVCQEITVPMCRGIGYNLTHMPNQFNHDTQDEAGLEVHQFWPLVEIQCSPDLRFFLCSMYTPICLPDYHKPLPPCRSVCERAKAGCSPLMRQYGFAWPERMSCDRLPVLGRDAEVLCMDY
modifications: biotin on the BAP-tag (enzymatic, GST-BirA ligase)

Test [1] addresses T1, mini-XWnt8 (C-terminal fragment of XWnt8, residues 248-338) displayed on yeast (Xenopus, UniProt P28026 248-338).
T1 sequence (looked up): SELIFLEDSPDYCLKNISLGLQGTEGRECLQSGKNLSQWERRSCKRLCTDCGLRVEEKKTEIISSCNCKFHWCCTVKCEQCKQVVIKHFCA
Description: flow cytometry on cells. On the technique in general: Flow cytometry measures light scatter and fluorescence of single cells or particles in a stream.

For test [2], the target named is B2. The experiment in a line: SPR. Background: Surface plasmon resonance follows binding to a sensor surface in real time, without labels.
Test [3] addresses B1. The experiment in a line: SPR.

For B1, the “percent of yeast stained” value in test [1] was about 50%.
B2: in test [1], the “percent of yeast stained” value is about 30%.

B3: soluble mini-XWnt8 (residues 248-338) with C-terminal six-histidine tag (domain or fragment, Xenopus, UniProt P28026 248-338, looked up)
chain: SELIFLEDSPDYCLKNISLGLQGTEGRECLQSGKNLSQWERRSCKRLCTDCGLRVEEKKTEIISSCNCKFHWCCTVKCEQCKQVVIKHFCA
In general, Kd refers to the free concentration of one partner at which half of the binding sites on the other are occupied at equilibrium, for simple one-to-one binding. A higher Kd goes with lower affinity. On to B3, for which the Kd was about 3500 nM in test [2] and about 2400 nM in test [3].
